Test [1] addresses T1, RBD of the WH1 (ancestral) SARS-CoV-2 spike protein (Severe acute respiratory syndrome …, UniProt P0DTC2).
T1 construct: also called RBD from the ancestral variant; WH1 RBD
Put plainly: ELISA. Conditions: both partners purified.

Test [2] addresses T2, B.1.1.529 (BA.1) S1 + S2 Trimer-His Recombinant Protein (SARS-CoV-2 Omicron B.1.1.529 (BA.1), strain).
T2 construct: also called Omicron BA.1 trimeric spike; BA.1 spike
Put plainly: cryo-EM structure. To be noted: both partners purified.

We go through two molecules from publication doi:10.1101/2023.01.20.524748, “A Novel Monoclonal Antibody Targeting a Large Surface of the Receptor Binding Motif Shows Pan-neutralizing SARS-CoV-2 Activity Including BQ.1.1 Variant” (bioRxiv, 2023).

B1: 17T2 mAb (human recombinant monoclonal IgG1) (antibody, V domains shown)
VH: QVQLVQSGPEVKKPGTSVKVSCKAPVFTFSISAVQWVRQARGQRLEWIGWIVVGSGNTNYAQNFQERVTITTDMSTGTVYMELSGLRSEDTAMYYCAAPYCNRTTCYDGFDLWGQGTMVTVSS
VL: EIVLTQSPGTLSLSPGERATLSCRASQSISSNYLAWYQQKPGQAPRLLIYGASSRATGIPDRFSGSGSGTDFTLSINRLEPEDFAMYYCQHYGGLSRWTFGQGTKVEIK
In the case of B1, in test [1], the binding result is recorded as “binds”.

B2: 17T2 Fab fragment (Fab, V domains shown)
VH: B1 VH
VL: B1 VL
notes: also called Fab 17T2
For the molecule B2, the “stoichiometry N” value in test [2] worked out at 3 Fab per spike trimer.
